Measured values from doi:10.1101/2024.06.25.600654 (bioRxiv, 2024).

Biological target: the molecule itself
Assay: SEC-SAXS

B1: ParB1 from Vibrio cholerae (vcParB1) (natural protein)
chain: MTKRGLGKGLDALLATSSLAREKQQVASLSQSMSAEGELADLSISNLKPGIYQPRKDLSPEALEELAASIQSQGIIQPIVVRHLPTGGYEIIAGERRWRAAKQAGLKQVPCLIKQVEDRGAIAMALIENIQREDLNAMEEAQALERLQNEFNLTHQQVAEVIGKSRTTVTNLLRLNQLSDDVKRLLETKQLEMGHARALLMLEGEQQVEIAQQVAKKQLTVRQTEQLVKKCLSDPSDAKNVSEDLEIQQLSQNLSEKLAAKVSIVRTPNGKSKVTISLDEPHKLELLIAKLQN
In the case of B1, the “stoichiometry N” value is reported as 2.
